# Measured values: patent US20240165226A1, “COMBINATION TREATMENT OF CD38-EXPRESSING TUMORS” (GENMAB A/S, priority 2006, published 2024)
# Assays:
# [1] = system: JK6L (a multiple myeloma cell line); test: ADCC set up II, JK6L cells; assay type: cell-based; conditions: in words
# Procedure: (§1) Human blood from human volunteers (university Erlangen, Erlangen, Germany) was diluted twice in RPMI 1640 and blood cells were layered on Ficoll (Lymphocyte Separation Medium […], 710 g, RT, 20 min; BioWhittaker, Cambrex Bio Science Verviers, Verviers, Belgium, cat. 17-829E, lot no. 0148 32). Peripheral blood mononuclear cells (MNCs) were collected from the interphase, washed and resuspended in RPMI 1640 culture medium supplemented with 10% FCS, 2 mM L-glutamine, 5 U/ml penicillin, 50 μg/ml streptomycin (all derived from BioWhittaker) to which 25 mM HEPES (BioWhittaker) was added.
# (§2) Target B-cells (fresh plasma cell leukemia tumor cells, JK6L and AMO-1 B-cell lines, obtained from Dr. T. Valerius, University of Erlangen, Erlangen, Germany) were labeled with 20 μCi ^51Cr (Amersham Biosciences, Uppsala, Sweden) for 2 hours. After extensive washing in RPMI-10, cells were adjusted to 1×10^5 cells/ml. […] After incubation (3 hr, 37° C.), assays were stopped by centrifugation, and 51Cr release from triplicates was measured in counts per minute (cpm) in a scintillation counter. Percentage of cellular cytotoxicity was calculated using the following formula: […]
# (§3) with maximal ^51Cr release determined by adding perchloric acid (3% final concentration) to target cells, and basal release was measured in the absence of sensitizing antibodies and effector cells.
# [2] = system: AMO-1 (a multiple myeloma cell line); test: ADCC set up II, AMO-1 cells; assay type: cell-based; conditions: CD38 expression is low
# Procedure: as §1, §2, §3
# [3] = biological target: T1, wt human CD38 (Homo sapiens, UniProt P28907); test: ELISA binding to wild type HA-CD38
# T1 construct: The extracellular domain of human CD38 was amplified from plasmid pCIpuroCD38; signal peptide SPHMM (N); made in house; host or cells: Freestyle 293-F (HEK-293F), transient; culture supernatant used
# Procedure: Freestyle™ 293-F (a HEK-293 subclone adapted to suspension growth and chemically defined Freestyle medium, (HEK-293F)) cells were obtained from Invitrogen and transfected with pEE13.4HACD38 and with the three constructs carrying the mutations T237A, Q272R and S274F, according to the manufacturer's protocol using 293fectin (Invitrogen). Culture supernatants of transfected cells were used in ELISA for anti-CD38 binding studies.
# Culture supernatants of transfected HEK293F cells were diluted, applied to the ELISA plates and incubated for 1 hr at RT. After washing, serial dilutions of HuMabs -003 and -005 were added and incubated for 1 hr at RT. Bound antibodies were detected with HRP-conjugated goat-anti-human IgG antibodies. The assay was developed with ABTS (Roche, #1112597) and the absorbance was measured at 405 nm using a spectrophotometer.
# [4] = biological target: T2, CHO cells transfected with human CD38 (CHO-CD38 cells) (Homo sapiens, UniProt P28907); test: Enzymatic activity of cellular expressed CD38 (cGDPR production); assay type: cell-based; conditions: after 156 minutes; for cGDPribose production: CHO-CD38 cells
# T2 construct: expressed in transfected cells; host or cells: CHO cells
# Procedure: The enzymatic activity of cellular expressed human CD38 was measured in an assay essentially as described in Graeff et al., J. Biol. Chem. 269, 30260-30267 (1994). Briefly, substrate NGD (80 μM) was incubated with […] CHO cells transfected with human CD38 (CHO-CD38 cells) in a buffer containing 20 mM Tris-HCl, pH 7.0 supplemented with 30 μg/ml IgG1. The production of cGDPR can be monitored spectrophotometrically at the emission wavelength of 410 nm (excitation at 300 nm). In this example an excitation filter of 340±60 nm and an emission filter of 430±8 nm was used. To test the effect of -005 and -003 on the enzymatic activity of cellular expressed CD38, CHO-CD38 cells were pre-incubated for 15′ at room temp. with various concentrations (30, 3, 0.3 and 0.03 μg/ml) of the different antibodies before adding the substrate NGD. The production of cGDPR was recorded at different time points after addition of substrate NGD (3, 6, 9, 12, 30, 45, 60, 112 and 156 min).
# [5] = system: EBV transformed chimpanzee B cells; test: Binding to EBV transformed chimpanzee B cells by flow cytometry; conditions: FITC-labeled antibody
# Procedure: After harvesting and counting, EBV transformed chimpanzee B cells (received from Biomedical Primate Research Centre, Department Immunobiology, Rijswijk, The Netherlands) were resuspended (1×10^6 cells/ml) in PBS-BSA (PBS supplemented with 0.1% BSA and 0.02% Na-azide). Then, cells were put in 96-well V-bottom plates (100 μl/well) and washed twice in PBS-BSA. Thereafter, 50 μl FITC-labeled -005 antibody solution in PBS-BSA was added to the cells (4° C., 30 min). Cells were washed three times and specific binding of -005 to EBV transformed chimpanzee B cells was detected by flow cytometry. FITC labeled HuMab-KLH (a human monoclonal antibody against KLH (keyhole limpet haemocyanin) generated by Genmab B.V., Utrecht, The Netherlands by use of the immunization protocols described elsewhere herein) was used as a control.
substance,measurement,setting,value
"-005: human monoclonal IgG1 anti-CD38 antibody, VL region SEQ ID No:12 and VH region SEQ ID No:17",lysis of JK6L by ADCC,[1],lysis is induced
same,lysis of AMO-1 by ADCC,[2],lysis is induced
same,binding to wt human CD38,[3],bind
same,cGDPribose production,[4]; 0.03 μg/ml antibody,104 % of NGD control
same,cGDPribose production,[4]; 0.3 μg/ml antibody,100 % of NGD control
same,cGDPribose production,[4]; 3 μg/ml antibody,82 % of NGD control
same,reduced production of cGDPR,[4]; 3 μg/ml,18%
same,cGDPribose production,[4]; 30 μg/ml antibody,79 % of NGD control
same,reduced production of cGDPR,[4]; 30 μg/ml,21%
same,binding to EBV transformed chimpanzee B cells,[5],dose dependent binding
